For one substance, Kd, koff and kon results are on record in patent CN117088968A.

This assay deals with 2019-nCoV N蛋白抗原 (2019-nCoV (新型冠状病毒)) (UniProt P0DTC9). The experiment in a line: AMC sensor, antibody captured at 10 μg/mL, N protein antigen in serial dilution in PBST.

For orientation: Kd means the constant that tells how readily two partners part at equilibrium. The term koff denotes the rate constant with which the complex falls apart. Read a high koff as fast dissociation. Broadly, the kon is the second-order rate constant of association. Read a low kon as slower complex formation.

As for 对照 (antibody), the Kd was 24.3 nM, the koff came out at 0.00011 s⁻¹ and the kon worked out at 4520 M⁻¹ s⁻¹.
